This experiment deals with ζ subunit (F420-reductase subunit) of the CODH component of the ACDS from Candidatus Ethanoperedens thermophilum (Candidatus Ethanoperedens thermophilum). The experiment in a line: crystal structure; α2ε2ζ2 ACDS subcomplex purified natively as one complex; sitting drop, anaerobic, 20 °C, 20% PEG 6000, 100 mM MES pH 6.0, 200 mM ammonium chloride, 1 mM FAD and FMN added; refined to 1.89 Å.

The source of these data is publication PMC11493965, “Ethane-oxidising archaea couple CO2 generation to F420 reduction” (Nature Communications, 2024).

The substance “ζ subunit (F420-reductase subunit) of the CODH component of the ACDS from Candidatus Ethanoperedens thermophilum (natural protein)” came in with a stoichiometry N of 2.
